Tests used:
[1] = system: COS7 cells; assay: Subcellular fractionation of GFP-ERK2 constructs; format: cell-based; conditions: 48 hr after transfection, serum-starved
Procedure: FIG. 6 is an autoradiograph illustrating the subcellular fractionation of WT-GFP-ERK2 (WT), APA-GFP-ERK2 (APA), or EPE-GFP-ERK2 (EPE). COS7 cells were grown in 10 cm plates and transfected with the above ERK2 constructs. Twenty-four hr after transfection the cells were serum-starved for 16 hr and subjected to cellular fractionation as described under materials and Methods. Western blot analysis of aliquots of the fractions were stained with anti GFP Ab to detect the ERK2 and its mutant, and with anti tubulin and anti c-Jun Abs as markers for the cytoplasmic and nuclear fractions respectively.
Cellular Fractionation: Transfected COS7 cells were starved (0.1% FBS) for 16 h, after which they were washed with ice-cold PBS, suspended in ice-cold buffer H, and centrifuged (12,000×g, 5 min). Then, the nuclear and cytosolic fractions were isolated as described [H. Rubinfeld, T. Hanoch, R. Seger, J. Biol. Chem. 274, 30349 (1999)]. Briefly, the pellets were suspended in 0.1% NP-40 followed by centrifugation (12,000×g, 5 min). The supernatant, containing the cytosolic fraction, was boiled in sample buffer. The pellet was suspended in extraction buffer (420 mM Nacl, 50 mM β-glycerophosphate, 0.5 mM Na3VO4, 1.5 mM MgCl2, 0.2 mM EDTA, 1 mM DTT, 25% glycerol), incubate on ice for 10 min, sonicated (50 W, 2×7 sec), and centrifuged (12,000×g, 5 min). […]

[2] = target: T1, importin-7 (Homo sapiens, UniProt O95373); assay: Coimmunoprecipitation with importin-7; format: binding; conditions: HeLa cells, coimmunoprecipitation with anti GFP Ab, with or without stimulation
T1 construct: endogenous in cells; host or cells: HeLa
Procedure: (§1) FIGS. 19A-19C are autoradiographs illustrating that phospho-SPS interacts with importin-7 and releases Nup153c binding without involvment of importin-β. […]. Interaction of ERK2 with Importin-7 is enhanced by EGF stimulation and EPE mutation. HeLa cells overexpressing WT-ERK (WT), ERK-APA (APA), ERK-EPE (EPE) or GFP were serum starved and treated with EGF (50 ng/ml, 10 min). The extracts of the treated cells were then subjected to coimmunoprecipitation using A/G beads pre-conjugated with anti GFP Ab and mild washes. The coimmunoprecipitated importin-7 (first panel) and importin-β (third panel), as well as their loading amounts (panels 2 and 4 respectively) were determined by WB using anti importin-7 (αImp7) and importin-β (αImpβ) Abs. The equal amount of immunoprecipitated ERKs was determined with anti GFP (αGFP; IP) Ab. FIG. 19B. Interaction of 2GFP-SPS and its mutants with importin-7. HeLa cells overexpressing 2GFP, 2GFP-SPS, 2GFP-APA and 2GFP-EPE constructs were subjected to coimmunoprecipitation as described in FIG. 19A (without EGF stimulation). FIG. 19C. Interaction of NUP153 with WTERK2 and its APA and EPE mutants. NUP153c is elevated in APA-ERK2, but reduced in EPE-ERK2. Immunoprecipitated and stringently washed WT-ERK2 (WT), APA-ERK2 (APA) or ERK2 from […] cells pre-treated with or without TPA (250 nM, 15 min) were incubated with 0.5 μg recombinant His-Nup153c. […]

[3] = system: COS7 cells; assay: Proliferation assay of COS7 cells overexpressing ERK2 constructs; format: cell-based; conditions: 72 hours after transfection
Procedure: FIG. 16 is a bar graph illustrating that the prevention of SPS phosphorylation inhibits proliferation. COS7 cells overexpressing WT-ERK2, 244-6A-ERK2, ▴244-6-ERK2, APA-ERK2 or EPE-ERK2 were subjected to proliferation assay 72 hours after transfection. The bar graph represent the mean+/−SD (n=3), Student t test was used for statistical analysis (*, p<0.01).

[4] = system: CHO cells; assay: Fluorescence microscopy of ERK2 constructs (subcellular localization); format: cell-based
Procedure: FIGS. 1A-1R are photomicrographs illustrating the role of SPS in the non-regulated accumulation of ERK2 in the nucleus. CHO (FIGS. 1A-F and 1M-R) or COS7 cells (FIGS. 1G-L) were grown on cover slips and transfected with WT-ERK2, or the mutants 244-6A and Δ244-6. Twenty-four hr following transfection, the cells were serum-starved (16 hr), fixed, stained with DAPI and visualized using a fluorescent microscope.
FIGS. 2A-2X are photomicrographs illustrating the role of SPS in the stimulated nuclear translocation of ERK2. CHO cells were grown on cover slips and co-transfected with HA-MEK1 together with either WT-ERK2, 244-6A, or Δ244-6. Twenty-four hr after transfection, the cells were serum starved for 16 hours, treated with TPA (250 nM, 15 min), except in WT-10 where the cells were treated with 10 nM TPA for 15 min. After treatments the cells were fixed and stained with either anti-HA Ab or DAPI.
FIGS. 5A-5F are photomicrographs illustrating that mutating the Ser residues in the SPS to Glu induces the nuclear accumulation of ERK2. CHO cells were grown on cover slips and transfected with WT-GFP-ERK2 (WT), APA-GFP-ERK2 (APA), or EPE-GFP-ERK2 (EPE). Twenty-four hr after transfection, the cells were serum-starved, fixed, stained with DAPI and visualized by a fluorescent microscope.
FIGS. 7A-7H are photomicrographs illustrating that EPE-ERKs translocates to the nucleus faster than WT-ERK. CHO cells were transfected with WT-GFP-ERK2 (WT) and EPE-GFP-ERK2 (EPE). Eight (FIGS. 7A-D) or twelve (FIGS. 7E-H) hours after transfection the cells were fixed, stained with DAPI and visualized by a fluorescent microscope.
Immunofluorescence Microscopy. Cells were fixed (30 min in 3% paraformaldehyde in PBS or 10 min with ice-cold methanol), followed by 5-min permeabilization with 0.2% Triton X-100 in PBS (23° C.). The fixed cells were sequentially incubated with the appropriate Abs (45 min) followed by rhodamine-conjugated secondary Abs (45 min) and DAPI. Slides were visualized using a fluorescence microscope (Nikon, Japan) at 400× magnifications. […]

[5] = system: Nup153c; assay: Interaction with recombinant His-Nup153c; format: binding; conditions: immunoprecipitated ERK2 incubated with 0.5 μg recombinant His-Nup153c
Procedure: as §1

T1 sequence (O95373 whole entry): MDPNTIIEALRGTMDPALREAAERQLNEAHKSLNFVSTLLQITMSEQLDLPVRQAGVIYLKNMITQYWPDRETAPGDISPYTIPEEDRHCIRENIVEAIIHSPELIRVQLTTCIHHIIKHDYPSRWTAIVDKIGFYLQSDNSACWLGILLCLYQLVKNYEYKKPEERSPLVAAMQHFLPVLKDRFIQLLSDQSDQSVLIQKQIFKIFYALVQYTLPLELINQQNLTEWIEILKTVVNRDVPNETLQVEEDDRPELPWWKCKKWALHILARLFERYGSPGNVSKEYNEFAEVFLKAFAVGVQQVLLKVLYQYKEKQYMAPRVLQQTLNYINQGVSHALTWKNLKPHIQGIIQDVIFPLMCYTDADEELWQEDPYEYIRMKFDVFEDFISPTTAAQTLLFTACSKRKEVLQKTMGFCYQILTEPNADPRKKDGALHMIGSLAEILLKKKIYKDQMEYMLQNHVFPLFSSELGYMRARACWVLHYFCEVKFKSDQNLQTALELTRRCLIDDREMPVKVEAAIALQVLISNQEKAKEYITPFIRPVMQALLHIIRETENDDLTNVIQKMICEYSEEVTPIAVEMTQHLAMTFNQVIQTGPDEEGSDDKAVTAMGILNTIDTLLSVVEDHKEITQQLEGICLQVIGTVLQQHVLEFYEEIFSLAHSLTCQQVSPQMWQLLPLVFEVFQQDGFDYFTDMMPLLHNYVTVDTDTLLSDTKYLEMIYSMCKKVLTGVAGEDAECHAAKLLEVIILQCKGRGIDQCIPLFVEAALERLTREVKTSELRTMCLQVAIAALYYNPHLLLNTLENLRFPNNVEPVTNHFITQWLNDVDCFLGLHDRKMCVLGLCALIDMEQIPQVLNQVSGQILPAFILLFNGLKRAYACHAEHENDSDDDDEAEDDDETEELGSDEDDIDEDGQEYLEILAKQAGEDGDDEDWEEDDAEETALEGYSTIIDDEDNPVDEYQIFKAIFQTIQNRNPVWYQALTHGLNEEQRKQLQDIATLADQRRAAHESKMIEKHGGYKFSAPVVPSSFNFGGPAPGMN

B1: EPE-ERK2: GFP-ERK2 with the two Ser residues of the SPS domain replaced with Glu (phosphomimetic) (protein)
chain: MAAAAAAGPEMVRGQVFDVGPRYTNLSYIGEGAYGMVCSAYDNLNKVRVAIKKISPFEHQTYCQRTLREIKILLRFRHENIIGINDIIRAPTIEQMKDVYIVQDLMETDLYKLLKTQHLSNDHICYFLYQILRGLKYIHSANVLHRDLKPSNLLLNTTCDLKICDFGLARVADPDHDHTGFLTEYVATRWYRAPEIMLNSKGYTKSIDIWSVGCILAEMLSNRPIFPGKHYLDQLNHILGILGEPEQEDLNCIINLKARNYLLSLPHKNKVPWNRLFPNADSKALDLLDKMLTFNPHKRIEVEQALAHPYLEQYYDPSDEPIAEAPFKFDMELDDLPKEKLKELIFEETARFQPGYRS
modifications: left off: large carriers
[1]
  localized in the nucleus: ~95%
[2]
  interaction of ERK2 constructs with importin-7: dramatically increased the interaction
[3]
  serum-induced cell proliferation: slightly enhanced
[4]; CHO cells, shortly (8 or 12 hours) after transfection
  speed of translocation into the nucleus: faster than WT-ERK2
[4]; overexpressed in CHO (and COS7) cells, serum-starved, fluorescent microscope
  subcellular localization in quiescent cells: pronounced nuclear localization
[5]
  interaction with Nup153: reduced
